In series [1] the target is cFos bZIP region (137-193) synthetic peptide, C-terminally biotin-tagged (human). The series can be described thus: dual-colour single-molecule fluorescence imaging on DNA tightropes; biotinylated peptide conjugated to premixed equimolar streptavidin Qdot 605 and Qdot 655 (100 nM peptide, 200 nM Qdots, diluted 50-fold); bound to Lambda DNA tightropes; HSABC buffer (50 mM Tris pH 7.5, 150 mM KCl, 10 mM MgCl2); room temperature (20 C); dual-coloured spots counted among DNA-bound molecules; monomer to dimer on DNA.

Series [2] shares this target. The series can be described thus: Qdot blinking analysis of single molecules on DNA tightropes; Qdot 655 conjugates only; blinks counted in 50 kymographs of 60 s for each protein; dual Poisson model fitted to cJun and cFos together; HSABC buffer; monomer to dimer on DNA.
Series [3] concerns the molecule itself. The series is described as follows: dual-colour single-molecule fluorescence imaging on DNA tightropes; biotinylated peptide conjugated to premixed equimolar streptavidin Qdot 605 and Qdot 655 (100 nM peptide, 200 nM Qdots, diluted 50-fold); bound to Lambda DNA tightropes; HSABC buffer (50 mM Tris pH 7.5, 150 mM KCl, 10 mM MgCl2); room temperature (20 C); dual-coloured spots counted among DNA-bound molecules; monomer to dimer on DNA.

Where no end group is shown, it is not given here.

In series [1], “cFos bZIP region (137-193) synthetic peptide, C-terminally biotin-tagged” displayed a percent of DNA-bound entities that were dual-colored of 15%, a percent of DNA-bound molecules dimerized of 30% and a stoichiometry N of 2. Moreover, the percent dimer (fit of Qdot blinking) in series [2] turned out to be 45.8%.

B1: cJun bZIP region (252-308) synthetic peptide, C-terminally biotin-tagged (peptide)
chain: RIKAERKRMRNRIAASKCRKRKLERIARLEEKVKTLKAQNYELASTANMLREQVAQLGAP-biotin
notes: bZIP region of cJun, residues 252-308 as stated; gly-ala-pro spacer before the C-terminal biotin; In the tightrope assays the peptide was conjugated through its biotin to streptavidin-coated Qdot 655 and/or Qdot 605; It holds the bZIP domain only; source: synthetic peptide (PeptideSynthetics)
Consider B1, for which the “stoichiometry N” value in series [3] was 2.

What is called stoichiometry N is a count of units in the complex or per binding partner.

These data come from PMC9364023, “In vitro single molecule and bulk phase studies reveal the AP-1 transcription factor cFos binds to DNA without its partner cJun” (The Journal of Biological Chemistry, 2022).
